Results on one molecule are retold here after patent US6670114 (N V INNOGENETICS, dated 2003).

This assay deals with T1, LDL (purified human low-density lipoprotein, Cappel) (human, UniProt P04114 28-4563).
T1 construct: This is a lipoprotein particle, not a single protein; also called solid phase LDL
The assay can be described thus: ELISA: biotinylated envelope protein on coated LDL, streptavidin-peroxidase.

B1: E2s (recombinant truncated HCV envelope protein E2, aa 384-673, genotype 1b) (other)
chain: HTRVSGGAAASNTRGLVSLFSPGSAQKIQLVNTNGSWHINRTALNCNDSLQTGFFAALFYKHKFNSSGCPERLASCRSIDKFAQGWGPLTYTEPNSSDQRPYCWHYAPRPCGIVPASQVCGPVYCFTPSPVVVGTTDRFGVPTYNWGANDSDVLILNNTRPPRGNWFGCTWMNGTGFTKTCGGPPCNIGGAGNNTLTCPTDCFRKHPEATYARCGSGPWLTPRCMVHYPYRLWHYPCTVNFTIFKVRMYVGGVEHRFGAACNWTRGERCDLEDRDRSELSPLLLSTTEWQ
modifications: biotinylated (sites not given)
notes: also called biotinylated E2
With B1, the binding result is recorded as “no binding”.
